In experiment [1] the target is T1, TRTK12 (CapZ peptide 265-276) (Homo sapiens, not fully specified).
T1 chain: Ac-TRTKIDWNKILS-NH2
Briefly: NMR line shape analysis.

Experiment [2] deals with T2, HDM2(25-47) (Homo sapiens, not fully specified; Ca2+; peptide N-acetylated, C-amidated).
T2 chain: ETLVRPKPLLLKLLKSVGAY
Briefly: NMR line shape analysis.

Experiment [3] addresses T3, HDM4(25-47) (Homo sapiens, not fully specified; Ca2+; peptide N-acetylated, C-amidated).
T3 chain: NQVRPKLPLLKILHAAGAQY
Briefly: NMR line shape analysis.

For experiment [4], the target named is T1, TRTK12 (CapZ peptide 265-276). Briefly: ITC.
Experiment [5] has as its target T2, HDM2(25-47). Briefly: ITC.
The target in experiment [6] is T3, HDM4(25-47). Briefly: ITC. In general terms: Isothermal titration calorimetry measures the heat released or taken up as one component is titrated into another.
A further experiment deals with T4, NDR(62-87), site 1 (Homo sapiens, not fully specified; Ca2+; peptide N-acetylated, C-amidated).
T4 chain: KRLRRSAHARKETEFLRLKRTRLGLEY
Briefly: ITC.

The next experiment concerns the target T5, NDR(62-87), site 2 (Homo sapiens, not fully specified; Ca2+; peptide N-acetylated, C-amidated).
T5 chain: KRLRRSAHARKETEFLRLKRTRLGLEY
Briefly: ITC.

Broadly, the Kd is the free concentration of one partner at which half of the binding sites on the other are occupied at equilibrium, for simple one-to-one binding. A higher Kd goes with a looser complex.

B1: S100B (protein)
chain: SELEKAMVALIDVFHQYSGREGDKHKLKKSELKELINNELSHFLEEIKEQEVVDKVMETLDNDGDGECDFQEFMAFVAMVTTACHEFFEHE
For B1, the dissociation constant (Kd) in experiment [1] stood at 1000 nM; with HDM2(25-47) [2], 100 nM; with HDM4(25-47) [3], 1000 nM; in experiment [4] it was 2000 nM; with HDM2(25-47) [5] it was 500 nM; with HDM4(25-47) [6], 70 nM. Besides, the Kd with NDR(62-87), site 1 came to 400 nM; with NDR(62-87), site 2 it was 2000 nM.

The values above are taken from paper PMC3448795 (2012).
